The values below come from the supplement of paper PMC10567573.

± gives the standard deviation.

The nature of the series: protein stability index of a GFP-peptide fusion (GPS, HEK-293T) (PSI 1-6); higher = more stable.
Setting [1] is: treatment: DMSO, c terminus: a fixed tail appended.
The mark [2] stands for this setting: treatment: MLN4924 1 uM, 8 h, c terminus: a fixed tail appended.
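Note: 24-mer peptide tiles fused after GFP, lentivirally expressed, FACS-sorted into six equal bins by GFP/DsRed ratio, decoded by Illumina sequencing, PSI is the read-weighted mean bin number.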

Regarding GKGWKATRLFHDSAVTSVRILQDE [DCAF4], the protein stability index was found to be 3.39 ± 0.21 under setting [1] and 3.67 ± 0.34 under setting [2].
In the case of GKKVSNQRFEVIEFDDGSGSVLRI [PTPRD], the protein stability index by setting is: under setting [1], 2.38 ± 0.74; under setting [2], 2.5 ± 0.26.
In the case of GKMVEEVDGRATQKLIVNLKPEKS [PTPRD], the protein stability index is, setting by setting: under setting [1], 4.69 ± 0.13; under setting [2], 4.66 ± 0.29.
As to GKVIVWDSFTTNKEHAVTMPCTWV [GNB5], the protein stability index worked out at 2.55 ± 0.37 under setting [1] and 2.27 ± 0.36 under setting [2].
With GLPAQQVGPWLGQLQELLHHCDDH [RSAD1], the protein stability index under setting [1] amounted to 3.6 ± 0.34 and the protein stability index under setting [2] was 3.61 ± 0.29.
Regarding GLSHSHDLSMDGLFGTIAYLPPER [RIPK4], the protein stability index is, setting by setting: under setting [1], 3.28 ± 0.32; under setting [2], 3.42 ± 0.25.
In the same order, the values of GLSTEAEQPFIPVEVLVDLFLKEG [PRAME] are 3.05 ± 0.11 and 3.3 ± 0.33.
For GLWSRISHLVLPVQPVSSIEEQGC [TOR1AIP2], the protein stability index is, setting by setting: under setting [1], 2.44 ± 0.26; under setting [2], 2.64 ± 0.38.
On to GMDLNLEAEALAGTGLVLDEQLNE [HDAC6], for which the protein stability index under setting [1] stood at 5.4 ± 0.44 and the protein stability index under setting [2] was determined as 5.33 ± 0.24.
Turning to GMRYAFIGPLETMHLNAEGMLSYC [CRYL1], the protein stability index is 2.56 ± 0.62 under setting [1] and 2.72 ± 0.74 under setting [2].
Regarding GNKCDLEDERVVGKEQGQNLARQW [RAP1B], the protein stability index is 4.7 ± 0.12 under setting [1] and 4.73 ± 0.14 under setting [2].
Consider GNYMEAKSVLIPVYGVSKETFLSF [RHOBTB3], for which the protein stability index reads like this: under setting [1], 2.69 ± 0.53; under setting [2], 2.31 ± 0.34.
In the case of GPAGHSKGELAPELGEEPQPRDEE [POLD4], the protein stability index reads like this: under setting [1], 5.41 ± 0.23; under setting [2], 5.43 ± 0.15.
On the same counts, the results for GPALPNGPLLGTNGATDDSKTNLI [ELAVL3] are 4.99 ± 0.17 and 4.93 ± 0.33.
On to GPFGGFFASGFKRAFKIKDFANTI [CDS1], for which the protein stability index is, setting by setting: under setting [1], 2.38 ± 0.31; under setting [2], 2.44 ± 1.
Take GPGAHILRRKSPASGQGPMCNVKA [ADAMTS4]: the protein stability index amounted to 4.05 ± 0.34 under setting [1] and 3.76 ± 0.36 under setting [2].
On to GPGDSQGRKRRQTSMTDFYHSKRR [CDKN1A], for which the protein stability index is, setting by setting: under setting [1], 3.62 ± 0.42; under setting [2], 4.78 ± 0.19.
Take GPKESLPVIAAPSMWTRPQIKDFK [ACBD3]: the protein stability index is, setting by setting: under setting [1], 3.8 ± 0.29; under setting [2], 3.79 ± 0.16.
With GPPPAQGSPGDGGLQDQVGAWGLP [EMID1], the protein stability index came out at 5.02 ± 0.12 under setting [1] and 5.03 ± 0.4 under setting [2].
For the sequence GPSHPDTSYYIRYRGAVYADSGNF [FEM1C], the protein stability index under setting [1] was 2.11 ± 0.45 and the protein stability index under setting [2] amounted to 2.54 ± 0.35.
As to GPVRPAIPPPLSSVYAWGGGLGTP [NEK8], the protein stability index was determined as 3.18 ± 0.2 under setting [1] and 3.18 ± 0.27 under setting [2].
On the same counts, the results for GQAEEELIKAKSQARLEEQQRLAH [LRRC45] are 5.13 ± 0.26 and 4.91 ± 0.38.
Consider GQDTFCQGKADGLYPNPRERSSFY [CHIT1], for which the protein stability index runs as follows: under setting [1], 3.71 ± 0.28; under setting [2], 3.57 ± 0.35.
GRDSEGPAEGEGRLGRCMRRLRDM [KCNG1]: the protein stability index reads like this: under setting [1], 4.99 ± 0.15; under setting [2], 4.76 ± 0.15.
GRFKLSIPHTHLLATLDPLALDRE [WDR88]: the protein stability index was 2.76 ± 0.24 under setting [1] and 2.76 ± 0.34 under setting [2].
In the case of GRHHSQSTEVQAHPYSTTFQESAS [TEKT4], the protein stability index was found to be 4.31 ± 0.2 under setting [1] and 4.46 ± 0.3 under setting [2].
With GRIIAVFKPKNEEPYGHLNPKWTK [PI4K2A], the protein stability index is, setting by setting: under setting [1], 2.09 ± 0.24; under setting [2], 2.2 ± 0.44.
Consider GRYVKENCKPLKSYMLQDSLEHVQ [CLK3], for which the protein stability index came out at 3.1 ± 0.23 under setting [1] and 3.08 ± 0.48 under setting [2].
Turning to GSWGSFQLPGLLNFGEFKCSDSDK [CLCN6], the protein stability index by setting is: under setting [1], 3.99 ± 0.29; under setting [2], 4.17 ± 0.57.
Turning to GTILNYLRDGAVPLPESRREIEEL [KCTD10], the protein stability index was found to be 3.98 ± 0.19 under setting [1] and 4.15 ± 0.073 under setting [2].
In the same order, the values of GVSKVGLRKIIDFIYTAKLSLNMD [KLHL13] are 2.81 ± 0.75 and 2.83 ± 0.63.
In the same order, the values of GWETRGDRKARKPLVEKKRRARIN [HES6] are 4.31 ± 0.36 and 4.54 ± 0.12.
As to GYEKRNLARVPKLDLKRQYDRVAQ [CHGB], the protein stability index under setting [1] came out at 3.37 ± 0.55 and the protein stability index under setting [2] is 3.11 ± 0.29.
On to GYRCFVCPVEYNNDTNSFTVDCEP [CDS2], for which the protein stability index reads like this: under setting [1], 2.35 ± 0.47; under setting [2], 2.58 ± 0.51.
In the case of HDCAESGSLDIMKMLLMYCAKMEK [FEM1C], the protein stability index amounted to 2.16 ± 0.3 under setting [1] and 2.13 ± 0.22 under setting [2].
Consider HDEDIKTTNVKSASRQKTSLGIEL [ZNF396], for which the protein stability index is 4.5 ± 0.27 under setting [1] and 4.58 ± 0.14 under setting [2].
On to HDESPGNNVVDISVPPTTDGQKPN [RAB11B], for which the protein stability index runs as follows: under setting [1], 5.46 ± 0.3; under setting [2], 5.57 ± 0.12.
For the sequence HDGKNQPGVAYPAFLGPDEAFALP [SPSB4], the protein stability index runs as follows: under setting [1], 4.12 ± 0.3; under setting [2], 4.06 ± 0.21.
On to HDPLWRRHCKKYWLISEEEKTQKN [FBXO3], for which the protein stability index is, setting by setting: under setting [1], 3.56 ± 0.45; under setting [2], 3.99 ± 0.34.
For HECVNMEESYYCRCHRGYTLDPNG [MATN2], the protein stability index reads like this: under setting [1], 3.44 ± 0.67; under setting [2], 3.36 ± 0.52.
Regarding HENAVQGSAVEVQTYQPPWKALSE [ISL2], the protein stability index reads like this: under setting [1], 4.15 ± 0.23; under setting [2], 4.02 ± 0.17.
For HFDATNLHKQTASDLLDEKEIAKN [FEM1C], the protein stability index by setting is: under setting [1], 5.38 ± 0.15; under setting [2], 5.31 ± 0.29.
HFGWYLGWGDCVWLPYLYTLQGLY [DHCR7] gave a protein stability index under setting [1] of 3.09 ± 0.84 and a protein stability index under setting [2] of 3.29 ± 0.11.
On to HFPASPFWSVMFFLMLINLGLGSM [SLC6A17], for which the protein stability index under setting [1] is 3.67 ± 0.42 and the protein stability index under setting [2] was 3.4 ± 0.25.
The sequence HFQEAIDFIDCVREKGGKVLVHCE [DUSP5] gave a protein stability index under setting [1] of 2.76 ± 0.39 and a protein stability index under setting [2] of 2.76 ± 0.53.
For HFWQLFNALTLFNLAQDPQCKEWQ [TMEM120A], the protein stability index reads like this: under setting [1], 3.17 ± 0.61; under setting [2], 3.72 ± 0.76.
For HGLLGSPVRAAASSPVTTLTQTMH [CDC25B], the protein stability index is, setting by setting: under setting [1], 3.7 ± 0.21; under setting [2], 3.79 ± 0.17.
On the same counts, the results for HGPQLPTGIEGNWGRLLEQVGTMA [ZBED2] are 3 ± 0.35 and 3.08 ± 0.24.
With HGWLRPEMRTKEQILELLVLEQFL [ZNF263], the protein stability index came to 2.46 ± 0.47 under setting [1] and 2.61 ± 0.43 under setting [2].
In the same order, the values of HIFGDLDSYIPLHEDLLTRIGEAT [NET1] are 2.96 ± 0.14 and 2.93 ± 0.17.
For the sequence HIKLHSGEKPFKCHLCNYACRRRD [IKZF1], the protein stability index came out at 2.55 ± 0.23 under setting [1] and 2.93 ± 0.61 under setting [2].
For the sequence HIRHLGWNPDARYSEHFLQEAKLL [GLT8D2], the protein stability index by setting is: under setting [1], 2.49 ± 0.17; under setting [2], 2.79 ± 0.4.
As to HLEGYHGTAGDSMSYHSGSVFSAR [TNXB], the protein stability index was 3.16 ± 0.43 under setting [1] and 3.47 ± 0.44 under setting [2].
With HQPVVRQCGPQTGLQSPGTLQPPE [TBX5], the protein stability index is 4.41 ± 0.27 under setting [1] and 4.63 ± 0.12 under setting [2].
As for HRIWMYNCHIGGSFSEETEKKFEH [LOXL2], the protein stability index was 2.42 ± 0.21 under setting [1] and 2.62 ± 0.34 under setting [2].
For the sequence HRWQVDLQLGDGGGCTVGVAGEGV [TRIM15], the protein stability index was 3.5 ± 0.27 under setting [1] and 3.38 ± 0.43 under setting [2].
With HSFQSSHRPSLNSVSLQINCQSVA [DLC1], the protein stability index was determined as 2.95 ± 0.29 under setting [1] and 2.98 ± 0.28 under setting [2].
Regarding HTLNNLVEKLLREEAEGARWTSYR [TRIM35], the protein stability index runs as follows: under setting [1], 2.48 ± 0.2; under setting [2], 2.57 ± 0.19.
In the same order, the values of HTRSITSCCFDPDSQRVASVSLDR [WDR88] are 3.53 ± 0.4 and 3.44 ± 0.39.
IAMTSGTVQPKQDAFANFANFSK [CLINT1]: the protein stability index (treatment: DMSO, c terminus: native) amounted to 4.22 ± 0.22 and the protein stability index (treatment: MLN4924 1 uM, 8 h, c terminus: native) turned out to be 4.17 ± 0.31.
On to IANPNSLNHVKSMWYPEIKHFCPR [RHOBTB1], for which the protein stability index came to 2.22 ± 0.13 under setting [1] and 2.4 ± 0.26 under setting [2].
Regarding IASFIRGPNPSKLIQQFLTLRPDQ [CDS2], the protein stability index was 2.24 ± 0.17 under setting [1] and 2.33 ± 0.22 under setting [2].
For the sequence IDHYVGIARDQTKSIVEKIQAKLP [RTN3], the protein stability index came to 3.05 ± 0.074 under setting [1] and 3.22 ± 0.39 under setting [2].
For the sequence IELQGVPNDEVHPLLGVKGDGKSK [RBBP5], the protein stability index reads like this: under setting [1], 5.14 ± 0.19; under setting [2], 4.96 ± 0.21.
IFFDDLDSPSKEEVFRFVQSCARA [CPOX]: the protein stability index turned out to be 2.45 ± 0.38 under setting [1] and 2.69 ± 0.65 under setting [2].
As for IGTPPSVLKRQRKRRVALSPVTEN [MYBL2], the protein stability index is, setting by setting: under setting [1], 4.22 ± 0.56; under setting [2], 4.49 ± 0.14.
In the same order, the values of IIGDYFSDQDPRVRTAAIKAMLQL [INTS4] are 2.19 ± 0.28 and 2.33 ± 0.2.
Consider IIQFVESGDDKNSNYFSMDSMEGK [TRIM29], for which the protein stability index is, setting by setting: under setting [1], 3.46 ± 0.24; under setting [2], 3.71 ± 0.29.
Turning to IIVTIMASQSLGSPMYFFLASLSF [OR4A15], the protein stability index by setting is: under setting [1], 3.29 ± 0.57; under setting [2], 3.13 ± 0.2.
Consider IKQKLGMNLMNELKQNFSKSWHDM [TPD52L1], for which the protein stability index was 2.09 ± 0.2 under setting [1] and 1.98 ± 0.35 under setting [2].
Consider ILHGTRGELLLDVAWHPVRPIIAS [RBBP5], for which the protein stability index runs as follows: under setting [1], 2.51 ± 0.33; under setting [2], 2.52 ± 0.25.
In turn, ILKRRSDEALERCQILELLNAELE [CCDC89] showed a protein stability index under setting [1] of 2.68 ± 0.34 and a protein stability index under setting [2] of 3 ± 0.42.
